# T1: mouse AXL extracellular domain (Sino cat. 51026-M08H) (mouse, UniProt Q00993 19-445)
# T1 construct: extracellular domain; Bought protein; also called mouse AXL ECD
# T1 sequence (looked up): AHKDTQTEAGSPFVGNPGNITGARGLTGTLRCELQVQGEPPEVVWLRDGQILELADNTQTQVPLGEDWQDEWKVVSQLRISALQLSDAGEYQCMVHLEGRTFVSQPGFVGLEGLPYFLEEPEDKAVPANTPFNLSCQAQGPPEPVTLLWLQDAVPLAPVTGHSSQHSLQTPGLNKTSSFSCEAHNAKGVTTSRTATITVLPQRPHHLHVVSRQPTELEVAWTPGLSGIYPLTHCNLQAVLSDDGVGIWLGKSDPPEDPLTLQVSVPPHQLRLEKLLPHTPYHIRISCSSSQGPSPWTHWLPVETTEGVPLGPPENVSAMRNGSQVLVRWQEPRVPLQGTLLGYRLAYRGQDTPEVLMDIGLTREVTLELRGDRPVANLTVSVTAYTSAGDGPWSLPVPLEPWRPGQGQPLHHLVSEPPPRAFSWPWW
# T2: human AXL expressed on the cell surface of tumor cell lines (human, UniProt P30530 26-894)
# T2 construct: whole, on cells; also called cell surface-expressed AXL; cell-based AXL
# T2 sequence (looked up): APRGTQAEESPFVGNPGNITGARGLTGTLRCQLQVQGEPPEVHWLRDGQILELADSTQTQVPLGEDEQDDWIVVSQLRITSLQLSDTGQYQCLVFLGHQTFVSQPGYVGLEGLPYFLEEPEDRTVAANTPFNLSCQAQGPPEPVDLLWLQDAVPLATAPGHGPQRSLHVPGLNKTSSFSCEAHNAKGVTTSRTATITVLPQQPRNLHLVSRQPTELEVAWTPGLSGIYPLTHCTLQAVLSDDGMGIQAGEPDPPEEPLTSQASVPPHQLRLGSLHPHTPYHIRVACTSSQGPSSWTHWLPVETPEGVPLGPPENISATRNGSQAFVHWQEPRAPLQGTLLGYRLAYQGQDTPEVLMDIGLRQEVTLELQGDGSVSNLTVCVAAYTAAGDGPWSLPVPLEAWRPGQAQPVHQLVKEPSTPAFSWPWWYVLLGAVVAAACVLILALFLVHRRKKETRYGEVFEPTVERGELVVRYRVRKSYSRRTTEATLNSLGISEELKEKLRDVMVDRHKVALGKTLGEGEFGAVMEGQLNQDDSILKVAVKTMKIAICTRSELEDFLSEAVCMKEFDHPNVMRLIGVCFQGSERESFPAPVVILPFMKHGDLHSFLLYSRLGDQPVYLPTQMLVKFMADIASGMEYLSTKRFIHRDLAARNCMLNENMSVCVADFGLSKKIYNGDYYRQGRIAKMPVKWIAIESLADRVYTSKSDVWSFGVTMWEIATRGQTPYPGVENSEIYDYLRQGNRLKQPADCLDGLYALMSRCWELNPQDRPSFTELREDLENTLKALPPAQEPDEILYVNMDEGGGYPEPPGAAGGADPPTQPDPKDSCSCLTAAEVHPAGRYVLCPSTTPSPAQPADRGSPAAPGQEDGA
# T3: recombinant human AXL extracellular domain, C-terminally His8-tagged (rhAXL-ECD) (human, UniProt P30530 26-451)
# T3 construct: Made in CHO cells; also called (rh)AXL-ECD His8; human AXL ECD
# T3 sequence: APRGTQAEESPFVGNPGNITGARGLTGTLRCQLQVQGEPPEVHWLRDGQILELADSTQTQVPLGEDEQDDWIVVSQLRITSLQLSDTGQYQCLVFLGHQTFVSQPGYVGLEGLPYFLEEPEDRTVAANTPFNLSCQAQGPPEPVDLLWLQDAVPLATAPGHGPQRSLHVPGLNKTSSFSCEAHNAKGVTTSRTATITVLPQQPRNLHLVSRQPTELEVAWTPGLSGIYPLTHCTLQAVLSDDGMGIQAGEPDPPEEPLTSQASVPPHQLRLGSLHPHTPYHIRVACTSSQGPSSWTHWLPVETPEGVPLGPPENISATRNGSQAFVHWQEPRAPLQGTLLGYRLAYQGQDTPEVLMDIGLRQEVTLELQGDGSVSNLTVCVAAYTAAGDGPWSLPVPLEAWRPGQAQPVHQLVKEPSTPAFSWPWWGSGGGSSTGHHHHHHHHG
# Experiments:
# [1] = target: T1, mouse AXL extracellular domain (Sino …); assay: ELISA on coated mouse AXL ECD (100 ng/well), VHH-Fc
# Method: (§1) ELISA. ELISAs against human, cyno and mouse AXL ECDs were conducted by immobilizing 100 ng of each protein in wells of Nunc MaxiSorp microplates overnight. Human AXL (aa 1-451) and cyno AXL (aa 1-449) were produced recombinantly as described in Example 10. Mouse AXL was purchased from Sino (cat. 51026-M08H). The next day, plates were blocked with 5% (w/v) dried milk in PBS. Murine mAbs (either hybridoma- or recombinantly-produced) or VHH-Fcs were diluted in PBS containing 1% BSA and 0.1% Tween-20 and added to wells for 2 hours at room temperature. Wells were washed 5× with PBS containing 0.1% Tween-20, then HRP-labeled protein A (diluted 1:1000 in PBS containing 1% BSA and 0.1% Tween™-20) was added to wells for 1 hour at room temperature. Wells were washed again 5× with PBS/0.1% Tween-20 and developed using TMB substrate. Absorbance was measured at 450 nm. As a positive control for mouse AXL binding, a commercial anti-mouse AXL mAb (clone 175128, R&D Systems MAB8541, rat IgG2A) was used and detected with donkey […] secondary antibody.
# [2] = target: T2, human AXL expressed on the cell surface …; assay: FACS on SKOV3 cells, apparent Kd, human Fc format
# Method: (§2) FACS binding assay. Adherent cells were dissociated with non-enzymatic Sigma Cell Dissociation Solution (Cat. No. C5789). Cells suspensions were added to polypropylene, V-bottom 96-well plates and incubated for 2 hours on ice with primary antibodies at concentrations ranging from 100 nM to 0.001 nM or at a single dose of 100 nM (for the non-specific control). After incubation and washes, cells were incubated with fluorescently labeled secondary antibody (Alexa Fluor® 488 anti-human IgG from Jackson Cat. No 709-546-098) for 1 hour on ice, then washed. Cell viability was determined using Fixable viability dye 450 (20 min on ice). Stained cells were fixed in 1% formaldehyde at 4° C. and stored at 4° C. until acquisition which was performed the next day.
# (§3) Binding of recombinant chimeric Abs to three cell lines was assessed by FACS as described above. The apparent Bmax and Kd determination is shown below in Table 14.
# [3] = target: T4, recombinant cynomolgus AXL extracellular domain (cynomolgus); assay: SPR, VHH-Fc captured, AXL ECD flowed, single-concentration kinetics (estimate)
# T4 construct: range 1-449; also called Cyno AXL; cyno AXL ECD
# Method: (§4) For VH Hs and VHH-Fcs, binding to human and cynomolgus AXL ECD was assessed using either a Biacore T200 instrument or a Biacore 3000 instrument. Either human AXL ECD or anti-human Fc antibody was immobilized on a research-grade CM5 series S sensor chip (T200, rhAXL ECD) or a C1 sensor chip (3000, anti-human Fc) using amine coupling in acetate buffer. VHH-Fcs were captured on anti-human Fc surfaces. Either monomeric VHHs (for rhAXL ECD surfaces) or human and cyno AXL ECD (for VHH-Fc surfaces) were flowed over the surfaces at different concentration ranges. Running buffers were HBS-EP (3000) and HBS-EP+(T200). Flow rates were 10-40 ul/min. All binding studies were performed at 25° C. Surfaces were regenerated using 10 mM glycine, pH 1.5.
# [4] = target: T3, recombinant human AXL extracellular …; assay: as above
# Method: as §4
# [5] = target: T3, recombinant human AXL extracellular …; assay: ELISA on coated AXL ECD (100 ng/well), VHH-Fc, HRP-protein A
# Method: as §1
# [6] = target: T2, human AXL expressed on the cell surface …; assay: FACS on NCI-H292 cells, apparent Kd, human Fc format
# Method: as §2, §3
# [7] = target: T2, human AXL expressed on the cell surface …; assay: FACS on MDA-MB-231 luciferase cells, apparent Kd, human Fc format
# Method: as §2, §3
# [8] = target: T3, recombinant human AXL extracellular …; assay: ELISA on coated AXL ECD (100 ng/well), HRP-protein A
# Method: as §1
# [9] = target: T3, recombinant human AXL extracellular …; assay: SPR Biacore T200, mAb captured on anti-Fc, AXL ECD flowed, multi-cycle kinetics
# Method: (§5) Surface plasmon resonance. For murine mAbs, binding to human and cynomolgus AXL ECD was assessed using a Biacore T200 instrument. Briefly, either anti-mouse or anti-human Fc antibody was immobilized on a research-grade CM5 series S sensor chip using amine coupling in acetate buffer. Murine or recombinant chimeric murine-human mAbs (mouse VH/VL; human constant regions) were captured, then recombinant human or cyno AXL ECD was flowed over the surface at different concentration ranges (0.1-500 nM) depending on the antibody. The running buffer was PBS/Tween-20 and the flow rate 100 uL/min. All binding studies were performed at 25° C. Surfaces were regenerated using 10 mM glycine, pH 1.5.
# [10] = target: T1, mouse AXL extracellular domain (Sino …); assay: ELISA on coated mouse AXL ECD (100 ng/well)
# Method: as §1
# [11] = target: T4, recombinant cynomolgus AXL …; assay: SPR Biacore T200, mAb captured on anti-Fc, AXL ECD flowed, multi-cycle kinetics
# Method: as §5
# [12] = target: T2, human AXL expressed on the cell surface …; assay: cell-based or functional assay
# [13] = target: T2, human AXL expressed on the cell surface …; assay: cell-based or functional assay; remark: listed apart in the source
Binder,binding result [1],Kd [2] [nM],Kd [3] [nM],koff [3] [s⁻¹],kon [3] [M⁻¹ s⁻¹],Kd [4] [nM],koff [4] [s⁻¹],kon [4] [M⁻¹ s⁻¹],EC50 [5] [nM],Kd [6] [nM],Kd [7] [nM],EC50 [8] [nM],Kd [9] [nM],koff [9] [s⁻¹],kon [9] [M⁻¹ s⁻¹],binding result [10],other results
"NRC-sdAb005-Fc (VHH-human IgG1 Fc fusion) (Fc fusion, VHH fused N-terminally to human IgG1 Fc; also called NRC-sdAb005-hIgG1; not shown: human IgG1 Fc) QVKLEESGGGLAQAGGSLRLSCAASGSISSINTIGWFRQAPGKQRELVAASDSGANRNYADSVKGRFTISRDNAKNTVYLQMNNLKPEDTAIYYCRAWGTGTISTMYWGQGTQVTVSS",no binding,2.03,35,0.0046,130000,34,0.0041,120000,1,1.47,1.47,,,,,,
"NRC-sdAb006-Fc (VHH-human IgG1 Fc fusion) (Fc fusion, VHH fused N-terminally to human IgG1 Fc; also called NRC-sdAb006-hIgG1; not shown: human IgG1 Fc) QVKLEESGGGLVQAGASLRLSCVASESIFGFNTMGWYRQAPGNERELVASISNSKRTMYADSVKGRFTISRDNAKNTVNLQMNNLKPEDTAVYYCRAWGIITSATVYWGQGTQVTVSS",no binding,13.4,26,0.0026,100000,24,0.0021,89000,1,2.12,0.832,,,,,,
"hFc-F111-5E9-DM1 (antibody, human IgG1, kappa, V domains shown, DM1 through SMCC linker on lysine residues; sites not given) VH: QIQLVQSGPELKKPGETVKISCKASGYTFTKYGMNWVKQAPGKGLKWMGWINTYTGEPTYADDFKGRFAFSLETSASTAYLQINNLTTEDMVTYFCAKGGYYSNPIYPMDYWGQGTSVTVSS VL: DIQMTQTTSSLSASLGDRVTISCRASQDINNYLNWYQQKPDGTVKLLIYYISRLHSGVPSRFSGSGSGTDYSLTISNLELEDVATYFCQQGNTLPFTFGSGTKLEIKR",,,,,,,,,,,,,,,,,"IC50 (read off the curve), growth inhibition of H292 cells, with added Gas6 (squares) [12]: ~0.04 nM; IC50 (read off the curve), growth inhibition of H292 cells, without added Gas6 (circles) [12]: ~0.04 nM; IC50 of growth inhibition (CellTiterGlo, 5 days) of NCI-H292 cells, -Gas6 [13]: 0.084 nM; IC50 of growth inhibition of NCI-H292 cells, +Gas6 (2 µg/mL) [13]: 0.074 nM"

# Now from value to binder, other results behind:
binding result [1],Kd [2] [nM],Kd [3] [nM],koff [3] [s⁻¹],kon [3] [M⁻¹ s⁻¹],Kd [4] [nM],koff [4] [s⁻¹],kon [4] [M⁻¹ s⁻¹],EC50 [5] [nM],Kd [6] [nM],Kd [7] [nM],EC50 [8] [nM],Kd [9] [nM],koff [9] [s⁻¹],kon [9] [M⁻¹ s⁻¹],binding result [10],Binder,other results
,,,,,,,,,,,15,1,0.0012,750000,no binding,"mIgG2 F149-4G4 (antibody, V domains shown, Printed as mIgG2 (mouse IgG2)) VH: QIQLVQSGPELKKPGETVKISCKTSGYTFTYYGINWVKQAPGKGLEWMGWINTYLGEPTYADDFKGRFAFSLETSASTAYLQINNLRDEDMATYFCTRGTMSYSFDYWGQGTALTVSS VL: QNVLTQSPAIMSASPGEEVTMTCRASSSVSSSYLHWYQQKSGASPKLWIYSTSKLASGVPARFSGSGSGTSYSLTISSVEAEDAATYYCHQYSGDPLTFGSGTKLEVK",
,,,,,,,,,,,14,3,0.0018,560000,no binding,"mIgG2 F155-3C7 (antibody, V domains shown, Printed as mIgG2 (mouse IgG2)) VH: QVQLQQPGTELVKPGASVKLSCKASGYIFTNFWINWVKQRPGQGLEWIGNIFPGSNSSNYNEKFKNKATLTVDKSSSTAYMHLSSLTSEDSAVYYCVRDYYGGSPDYWGQGTTLTVSS VL: DIVMSQSPSSLAVSAGEKVTMSCKSSQSLLNSKTRKNYLAWYQQKPGQSPKLLIYWASTRESGVPARFTGSGSGTDFTLTISSVQAEDLAIYYCKHSYNLWTFGGGTKLEIR",Kd [11]: 25 nM; koff [11]: 0.0073 s⁻¹; kon [11]: 290000 M⁻¹ s⁻¹

# — patent US20240076389A1 (NATIONAL RESEARCH COUNCIL OF CANADA, published 2024)
